In patent publication US20200317768A1 (published 2020):
Changes are numbered by the printed parent chain.

T1: cynomolgus monkey FcγRIIa1 extracellular domain, His-tagged (cynomolgus monkey)
T1 construct: also called cyno FcγRIIa1; cynoFcgRIIa1; not shown: C-terminal His-tag
T1 chain: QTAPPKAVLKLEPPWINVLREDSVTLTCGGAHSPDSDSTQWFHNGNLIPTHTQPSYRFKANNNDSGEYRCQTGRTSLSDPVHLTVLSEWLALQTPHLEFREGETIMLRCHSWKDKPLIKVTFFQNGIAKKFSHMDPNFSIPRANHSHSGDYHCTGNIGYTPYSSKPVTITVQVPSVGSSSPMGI

T2: cynomolgus monkey FcγRIIa2 extracellular domain, His-tagged (cynomolgus monkey)
T2 construct: also called cyno FcγRIIa2; cynoFcgRIIa2; not shown: C-terminal His-tag
T2 chain: T1 chain with P95T, T121A, I127K, A128S, K130N, D135N, R142Q

T3: cynomolgus monkey FcγRIIa3 extracellular domain, His-tagged (cynomolgus monkey)
T3 construct: also called cyno FcγRIIa3; cynoFcgRIIa3; not shown: C-terminal His-tag
T3 chain: T1 chain with P95T, T121A, A128S, H133P, D135N

T4: cynomolgus monkey FcγRIIb extracellular domain, His-tagged (cynomolgus monkey)
T4 construct: also called cyno FcγRIIb; cynoFcγRIIb; not shown: C-terminal His-tag
T4 chain: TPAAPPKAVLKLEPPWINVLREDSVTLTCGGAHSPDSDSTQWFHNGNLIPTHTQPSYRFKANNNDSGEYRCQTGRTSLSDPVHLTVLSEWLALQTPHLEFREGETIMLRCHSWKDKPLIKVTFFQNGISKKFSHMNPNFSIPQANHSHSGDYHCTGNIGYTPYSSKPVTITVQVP

T5: cynomolgus monkey FcγRIIIaS extracellular domain, His-tagged (cynomolgus monkey, UniProt Q8SPW2 21-206 at identity 1.00))
T5 construct: also called cyno FcγRIIIaS; cynoFcγRIIIaS; not shown: C-terminal His-tag
T5 chain: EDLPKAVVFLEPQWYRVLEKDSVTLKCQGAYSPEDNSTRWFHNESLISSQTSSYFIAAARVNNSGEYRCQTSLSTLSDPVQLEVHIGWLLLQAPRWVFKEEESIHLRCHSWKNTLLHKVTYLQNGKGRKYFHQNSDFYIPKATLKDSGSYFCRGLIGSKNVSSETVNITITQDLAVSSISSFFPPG

T6: human FcγRIIaH extracellular domain, His-tagged (human, UniProt P12318 34-217)
T6 construct: also called human FcγRIIa (type H); FcgRIIaH; not shown: C-terminal His-tag
T6 sequence: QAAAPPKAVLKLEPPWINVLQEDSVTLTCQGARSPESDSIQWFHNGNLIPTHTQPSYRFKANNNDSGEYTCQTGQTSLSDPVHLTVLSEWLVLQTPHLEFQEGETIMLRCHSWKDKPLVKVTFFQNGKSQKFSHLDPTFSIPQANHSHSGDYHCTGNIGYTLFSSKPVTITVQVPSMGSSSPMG

T7: human FcγRIIaR extracellular domain, His-tagged (human, UniProt P12318 34-217)
T7 construct: also called human FcγRIIa (type R); FcgRIIaR; not shown: C-terminal His-tag
T7 chain: T6 sequence with H134R

T8: human FcγRIIb extracellular domain, His-tagged (human, UniProt P31994 43-217)
T8 construct: also called FcgRIIb (human); not shown: C-terminal His-tag
T8 sequence: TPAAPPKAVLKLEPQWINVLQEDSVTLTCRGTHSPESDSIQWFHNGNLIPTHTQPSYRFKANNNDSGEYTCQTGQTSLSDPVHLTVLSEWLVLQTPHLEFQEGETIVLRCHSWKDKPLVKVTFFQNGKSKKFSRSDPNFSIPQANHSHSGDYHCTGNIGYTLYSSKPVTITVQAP

B1: M103205H795-MY463/M103202L889-SK1 (antibody, human IgG1, kappa)
heavy: QVTLKESGPVLVKPTETLTLTCTVSGIDLSHDDISWVRQAPGKGLEWVGIISYAGSTYYASWAKGRLTISKDTSKNQVVLTMTNMDPVDTATYYCARGVPAYSHGGDLWGQGTLVTVSSASTKGPSVFPLAPSSKSTSGGTAALGCLVKDYFPEPVTVSWNSGALTSGVHTFPAVLQSSGLYSLSSVVTVPSSSLGTQTYICNVNHKPSNTKVDKKVEPKSCDKTHTCPPCPHPELLTGPSVFLFPPKPKDTLMISRTPEVTCVVVDVSDEDPEVKFNWYVDGVEVHNAKTKPREEQYNSTYRVVSVLTVLHQDWLNGKEYKCKVSNKALPKPIEKTISKAKGQPREPQVYTLPPSREEMTKNQVSLTCLVKGFYPSDIAVEWESNGQPENNYKTTPPVLDSDGSFFLYSKLTVDKSRWQQGNVFSCSVMHEALHNHYTQKSLSLSP
light: DIVMTQSPATLSLSPGERATLSCTSSQSVYHANWLSWFQQKPGQPPKLLIYWASTLAYGVPSRFSGSGSGTDFTLTISSLQPEDAATYYCAGGYGGGRYAFGQGTKVEIKRTVAAPSVFIFPPSDEQLKSGTASVVCLLNNFYPREAKVQWKVDNALQSGNSQESVTEQDSKDSTYSLSSTLTLSKADYEKHKVYACEVTHQGLSSPVTKSFNRGEC
notes: copies: 2 + 2
B2: M103205H795-MY465/M103202L889-SK1 (antibody, human IgG1, kappa)
heavy: B1 heavy with H233K
light: B1 light
notes: copies: 2 + 2
B3: M103205H795-MY470/M103202L889-SK1 (antibody, human IgG1, kappa)
heavy: B1 heavy with H233Q
light: B1 light
notes: copies: 2 + 2
B4: M103205H795-MY468/M103202L889-SK1 (antibody, human IgG1, kappa)
heavy: B1 heavy with H233N
light: B1 light
notes: copies: 2 + 2
B5: M103205H795-MY464/M103202L889-SK1 (antibody, human IgG1, kappa)
heavy: B1 heavy with H233I
light: B1 light
notes: copies: 2 + 2
B6: M103205H795-MY472/M103202L889-SK1 (antibody, human IgG1, kappa)
heavy: B1 heavy with H233S
light: B1 light
notes: copies: 2 + 2
B7: M103205H795-MY467/M103202L889-SK1 (antibody, human IgG1, kappa)
heavy: B1 heavy with H233M
light: B1 light
notes: copies: 2 + 2
B8: M103205H795-MY466/M103202L889-SK1 (antibody, human IgG1, kappa)
heavy: B1 heavy with H233L
light: B1 light
notes: copies: 2 + 2
B9: M103205H795-MY471/M103202L889-SK1 (antibody, human IgG1, kappa)
heavy: B1 heavy with H233R
light: B1 light
notes: copies: 2 + 2
B10: M103205H795-MY469/M103202L889-SK1 (antibody, human IgG1, kappa)
heavy: B1 heavy with H233P
light: B1 light
notes: copies: 2 + 2

Target: T1, cynomolgus monkey FcγRIIa1 …
Test: SPR (BIACORE); KD of SG1 divided by KD of variant;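 also: relative to parent M103205H795-SG1 carrying the SG1 human heavy chain constant region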
Procedure: (§1) The kinetic analysis of interactions between these antibodies and FcγR was carried out using BIACORE® T200 or BIACORE® 4000 (GE Healthcare). HBS-EP+ (GE Healthcare) was used as the running buffer, and the measurement temperature was set to 25° C. A chip produced by immobilizing Protein A. Protein A/G or mouse anti-human IgG kappa light chain (BD Biosciences) onto a Series S Sensor Chip CM4 or CM5 (GE Healthcare) by the amine-coupling method was used. […] After the measurement, the antibody captured on the chip was washed off by allowing reaction with 10 mM glycine-HCl, pH1.5 and 25 mM NaOH so that the chip was regenerated and used repeatedly. The sensorgrams obtained as measurement results were analyzed by the 1:1 Langmuir binding model using the BIACORE® Evaluation Software to calculate the binding rate constant ka (L/mol/s) and dissociation rate constant kd (l/s), and the dissociation constant KD (mol/L) was calculated from these values. […] Regarding such interactions, KD values were calculated using the following 1:1 binding model described in BIACORE® T100 Software Handbook BR1006-48 Edition AE.

| KD fold (SG1 = 1) [fold] | Binder |
| --- | --- |
| 1.5 | B1 |
| 1.6 | B2 |
| 1.5 | B3 |
| 1.1 | B4 |
| 1.7 | B5 |
| 1.5 | B6 |
| 1.7 | B7 |
| 1.7 | B8 |
| 1.2 | B9 |
| 1.5 | B10 |

Target: T2, cynomolgus monkey FcγRIIa2 …
Test: SPR (BIACORE); KD of SG1 divided by KD of variant;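 also: relative to parent M103205H795-SG1 carrying the SG1 human heavy chain constant region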
Procedure: as §1

| KD fold (SG1 = 1) [fold] | Binder |
| --- | --- |
| 2.3 | B1 |
| 1.3 | B2 |
| 2.8 | B3 |
| 2 | B4 |
| 3.4 | B5 |
| 2.4 | B6 |
| 2.7 | B7 |
| 2.3 | B8 |
| 2.4 | B9 |
| 2.4 | B10 |

Target: T3, cynomolgus monkey FcγRIIa3 …
Test: SPR (BIACORE); KD of SG1 divided by KD of variant;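 also: relative to parent M103205H795-SG1 carrying the SG1 human heavy chain constant region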
Procedure: as §1

| KD fold (SG1 = 1) [fold] | Binder |
| --- | --- |
| 3.9 | B1 |
| 3.3 | B2 |
| 3.5 | B3 |
| 3.3 | B4 |
| 4.4 | B5 |
| 3.3 | B6 |
| 3.6 | B7 |
| 3.9 | B8 |
| 3.8 | B9 |
| 3.5 | B10 |

Target: T4, cynomolgus monkey FcγRIIb extracellular …
Test: SPR (BIACORE); KD of SG1 divided by KD of variant;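 also: relative to parent M103205H795-SG1 carrying the SG1 human heavy chain constant region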
Procedure: as §1

| KD fold (SG1 = 1) [fold] | Binder |
| --- | --- |
| 3.1 | B1 |
| 2.6 | B2 |
| 3.3 | B3 |
| 2.8 | B4 |
| 3.6 | B5 |
| 2.7 | B6 |
| 2.5 | B7 |
| 3.5 | B8 |
| 2.6 | B9 |
| 3 | B10 |

Target: T5, cynomolgus monkey FcγRIIIaS …
Test: SPR (BIACORE); KD of SG1 divided by KD of variant
Procedure: as §1

| KD fold (SG1 = 1) [fold] | Binder |
| --- | --- |
| 0.2 | B1 |
| 0.2 | B2 |
| 0.2 | B3 |
| 0.2 | B4 |
| 0.2 | B5 |
| 0.2 | B6 |
| 0.2 | B7 |
| 0.2 | B8 |
| 0.2 | B9 |
| 0.2 | B10 |

Target: T6, human FcγRIIaH extracellular domain, …
Test: SPR (BIACORE); KD of SG1 divided by KD of variant
Procedure: as §1

| KD fold (SG1 = 1) [fold] | Binder |
| --- | --- |
| 3.1 | B1 |
| 2.8 | B2 |
| 3.3 | B3 |
| 2.5 | B4 |
| 4.1 | B5 |
| 3.8 | B6 |
| 3.8 | B7 |
| 4.1 | B8 |
| 3 | B9 |
| 3.5 | B10 |

Target: T7, human FcγRIIaR extracellular domain, …
Test: SPR (BIACORE); KD of SG1 divided by KD of variant
Procedure: as §1

| KD fold (SG1 = 1) [fold] | Binder |
| --- | --- |
| 2.2 | B1 |
| 1.8 | B2 |
| 2.5 | B3 |
| 2.3 | B4 |
| 4.2 | B5 |
| 2.2 | B6 |
| 3.1 | B7 |
| 4.2 | B8 |
| 2.5 | B9 |
| 2.6 | B10 |

Target: T8, human FcγRIIb extracellular domain, …
Test: SPR (BIACORE); KD of SG1 divided by KD of variant
Procedure: as §1

| KD fold (SG1 = 1) [fold] | Binder |
| --- | --- |
| 2 | B1 |
| 1.6 | B2 |
| 2 | B3 |
| 1.8 | B4 |
| 2.9 | B5 |
| 1.8 | B6 |
| 2.3 | B7 |
| 3.3 | B8 |
| 1.8 | B9 |
| 1.9 | B10 |

Target: T9, human FcγRIIIaV extracellular domain, His-tagged (human, UniProt P08637 17-208)
T9 construct: also called FcgRIIIaV; not shown: C-terminal His-tag
T9 sequence (P08637 17-208 F176V): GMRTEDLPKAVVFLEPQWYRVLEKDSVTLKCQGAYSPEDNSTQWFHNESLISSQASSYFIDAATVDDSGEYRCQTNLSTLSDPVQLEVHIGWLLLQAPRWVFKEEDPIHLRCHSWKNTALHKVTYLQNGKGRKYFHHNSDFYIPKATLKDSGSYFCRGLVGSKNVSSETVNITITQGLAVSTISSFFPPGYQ
Test: SPR (BIACORE); KD of SG1 divided by KD of variant
Procedure: as §1

| KD fold (SG1 = 1) [fold] | Binder |
| --- | --- |
| 0.2 | B1 |
| 0.1 | B2 |
| 0.2 | B3 |
| 0.1 | B4 |
| 0.2 | B5 |
| 0.1 | B6 |
| 0.2 | B7 |
| 0.3 | B8 |
| 0.2 | B9 |
| 0.1 | B10 |
